Source: patent US6063627

Test system: Cre recombinase (Bacteriophage P1)
Assay: cell_activity
Details: cotransfection with Cre-expressing plasmid

Question: For Lox sites in pEOBglugl, which activity (log induction of beta-glucuronidase) is on record?
Answer: The activity (log induction of beta-glucuronidase) was over 3.
